Measurements as given in patent US20250188166A1.

Tests used:
[1] = target: native IL-18 wild-type (SEQ ID NO: 1) (human) (UniProt Q14116); assay: cell-based or functional assay
[2] = target: IL-18 polypeptide SEQ ID NO: 30 (E6K, V11I, C38A, K53A, T63A, C76A, C127A) (human) (UniProt Q14116); assay: cell-based or functional assay

## His-tag human IL-18 binding protein isoform a (from UniProt O95998 31-194)
[1]
  IC50 of IL-18BPa on IFNγ secretion, PD-1^negative Parental NK-92: 0.00297 µM
  IC50 of IL-18BPa on IFNγ secretion, PD-1^positive NK-92: 0.00267 µM
[2]
  IC50 of IL-18BPa on IFNγ secretion, PD-1^negative Parental NK-92: 0.11 µM
  IC50 of IL-18BPa on IFNγ secretion, PD-1^positive NK-92: 0.0803 µM
